Results as given in patent US20260191905A1 (MODERNATX, published 2026).

Key:
[1] = target: human GPC3 on Jurkat E6.1 cells (human) (UniProt P51654); assay: FACS; share of events in the FL1-A+ gate (from 10^5); beside Irrelavant IgG C10 6.49; cells by legend: Jurkat E6.1 with human GPC3, not printed on the panel [23D]
[2] = target: human GPC3 on Jurkat E6.1 cells (human) (UniProt P51654); assay: FACS; share of events in the FL1-A+ gate (from 10^5); secondary only 0.21; cells by legend: Jurkat E6.1 with human GPC3, not printed on the panel [23B]
[3] = target: human GPC3 on Jurkat E6.1 cells (human) (UniProt P51654); assay: FACS; share of events in the FL1-A+ gate (from 10^5); cells by legend: Jurkat E6.1 with human GPC3, not printed on the panel [23C]
[4] = target: T1, human GPC3 recombinant protein (human, UniProt P51654 25-559); assay: SPR (Biacore), summary table; Chi2 0.926; Profile 'L.D.' (less desirable)
T1 construct: also called huGPC3; Human GPC3 protein
T1 sequence (P51654 25-559 limits assumed): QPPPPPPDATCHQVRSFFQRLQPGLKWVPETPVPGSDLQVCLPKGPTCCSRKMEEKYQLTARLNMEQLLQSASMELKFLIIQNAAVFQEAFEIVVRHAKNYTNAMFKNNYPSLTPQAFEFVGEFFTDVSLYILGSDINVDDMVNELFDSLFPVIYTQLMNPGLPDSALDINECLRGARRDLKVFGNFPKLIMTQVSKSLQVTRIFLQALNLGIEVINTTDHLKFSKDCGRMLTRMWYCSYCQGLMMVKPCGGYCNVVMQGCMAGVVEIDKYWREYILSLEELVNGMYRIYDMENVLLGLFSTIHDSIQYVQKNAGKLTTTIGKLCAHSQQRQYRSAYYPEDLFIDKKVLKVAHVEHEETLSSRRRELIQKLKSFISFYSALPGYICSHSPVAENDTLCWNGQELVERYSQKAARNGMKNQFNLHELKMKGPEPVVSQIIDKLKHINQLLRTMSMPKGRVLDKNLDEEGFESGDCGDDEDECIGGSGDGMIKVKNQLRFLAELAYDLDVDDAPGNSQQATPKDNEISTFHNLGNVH
Experimental: (§1) Affinities of the 19 VHH-His tagged domains were then determined by BiaCore assay. Human GPC3 protein (Sino biological cat. nr. 10088-H08H-500) was immobilized on CM5 sensor chip (GE Healthcare) as antigen. Purified VHH-His tagged domains were diluted in BiaCore buffer (0.01 M HEPES pH 7.4, 0.15 M NaCl, 3 mM EDTA, 0.05% P20) to 500 nM and injected over 2 minutes at […] followed by a half dilution series to 7.8 nM. 10 μl of 10 mM NaOH/1M NaCl were injected between samples and then off-rate wash was 5 minutes.

[5] = target: T1, human GPC3 recombinant protein; assay: SPR (Biacore) off-rate screen, periplasmic extract over human GPC3 on CM5; R0 13.6; asterisk not explained on the sheet
Experimental: (§2) Human GPC3 protein in acetate buffer, pH 5.0, was immobilized in a sensor chip CM5 (GE Healthcare; Cat. Nr. BR-1005-30; Lot. Nr.10245232) and successful immobilization was confirmed by using a commercially available human GPC3 antibody (R&D cat. nr. MAB2119) and the anti-GPC3-VHH-Fc (both at 10 μg/mL). Periplasmic extracts from the MP were diluted in Biacore Buffer (0.01 M HEPES pH 7.4, 0.15 M NaCl, 3 mM EDTA, 0.05% P20) and injected over 2 minutes at 30 μL/min. 10 μl of 10 mM NaOH/1M NaCl were injected between samples and off-rates were measured over 5 minutes. Off-rate ([…]) were calculated using BIACORE software 1:1 interaction Langmuir binding model.

[6] = target: T1, human GPC3 recombinant protein; assay: SPR (Biacore), VHH-His over human GPC3 on CM5; fit 125 - 7.8 nM; Rmax 16.8 RU; Chi2 0.926
Experimental: as §1

[7] = target: T2, human GPC3 on HepG2 cells (human, UniProt P51654 25-554); assay: FACS, periplasmic extract 1:5 + anti-c-myc + GAM-APC on HepG2, well A1; same on A-431: 853.36
T2 construct: whole, on cells
T2 sequence (P51654 25-554 limits assumed): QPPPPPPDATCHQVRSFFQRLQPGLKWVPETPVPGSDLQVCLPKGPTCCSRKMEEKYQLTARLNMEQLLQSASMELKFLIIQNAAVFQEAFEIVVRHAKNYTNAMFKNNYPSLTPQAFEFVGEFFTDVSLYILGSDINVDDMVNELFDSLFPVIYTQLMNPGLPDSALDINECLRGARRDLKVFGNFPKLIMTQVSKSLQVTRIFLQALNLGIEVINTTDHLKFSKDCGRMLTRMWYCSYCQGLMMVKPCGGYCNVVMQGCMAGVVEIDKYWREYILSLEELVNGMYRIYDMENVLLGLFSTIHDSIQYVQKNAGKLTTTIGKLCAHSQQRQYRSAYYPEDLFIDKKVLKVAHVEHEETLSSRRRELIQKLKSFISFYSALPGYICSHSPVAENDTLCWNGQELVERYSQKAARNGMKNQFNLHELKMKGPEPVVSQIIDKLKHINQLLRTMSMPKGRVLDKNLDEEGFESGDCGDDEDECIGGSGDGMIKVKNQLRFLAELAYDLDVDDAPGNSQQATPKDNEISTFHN

[8] = target: T2, human GPC3 on HepG2 cells; assay: FACS, phage-displayed clone on HepG2, well A1; same clone on A-431 (no GPC3): 0.95%
[9] = target: T2, human GPC3 on HepG2 cells; assay: FACS, phage-displayed clone on HepG2, well A1; same clone on A-431 (no GPC3): 1028.96
[10] = target: T2, human GPC3 on HepG2 cells; assay: FACS, periplasmic extract 1:5 + anti-c-myc + GAM-APC on HepG2, well A1; same on A-431: 0.10%
[11] = target: T1, human GPC3 recombinant protein; assay: SPR (Biacore) off-rate screen, periplasmic extract over human GPC3 on CM5; R0 40.1
Experimental: as §2

[12] = target: T1, human GPC3 recombinant protein; assay: SPR (Biacore) off-rate screen, periplasmic extract over human GPC3 on CM5; R0 61.1
Experimental: as §2

[13] = target: T1, human GPC3 recombinant protein; assay: SPR (Biacore), summary table; Chi2 0.281; Profile 'Good'
[14] = target: T1, human GPC3 recombinant protein; assay: SPR (Biacore), VHH-His over human GPC3 on CM5; fit 131.7 - 17.34 nM; Rmax 11.5 RU; Chi2 0.281
Experimental: as §1

[15] = target: T2, human GPC3 on HepG2 cells; assay: FACS, phage-displayed clone on HepG2, well H1; same clone on A-431 (no GPC3): 1059.31
[16] = target: human GPC3 on Jurkat E6.1 cells (human) (UniProt P51654); assay: FACS, 1 µg/ml VH + anti-His-FITC; share of events in the FL1-A+ gate (from 10^5); secondary only 0.21 [23F]
[17] = target: T1, human GPC3 recombinant protein; assay: SPR (Biacore) off-rate screen, periplasmic extract over human GPC3 on CM5; R0 59.0
Experimental: as §2

[18] = target: T1, human GPC3 recombinant protein; assay: SPR (Biacore), summary table; Chi2 0.281; Profile 'Medium'; FIG. 18 prints 2.97E-09
Experimental: as §1

[19] = target: T2, human GPC3 on HepG2 cells; assay: FACS, phage-displayed clone on HepG2, well H1; same clone on A-431 (no GPC3): 1.36%
[20] = target: T2, human GPC3 on HepG2 cells; assay: FACS, periplasmic extract 1:5 + anti-c-myc + GAM-APC on HepG2, well H1; same on A-431: 759.64
[21] = target: T1, human GPC3 recombinant protein; assay: SPR (Biacore), VHH-His over human GPC3 on CM5; fit 250 - 7.8 nM; Rmax 8.15 RU; Chi2 0.281
Experimental: as §1

[22] = target: T2, human GPC3 on HepG2 cells; assay: FACS, periplasmic extract 1:5 + anti-c-myc + GAM-APC on HepG2, well H1; same on A-431: 0.24%
[23] = target: T1, human GPC3 recombinant protein; assay: SPR (Biacore), VHH-His over human GPC3 on CM5; fit 131.7 - 17.34 nM; Rmax 1.72 RU; Chi2 0.173; asterisk: values not accurately calculated by Biacore software
Experimental: as §1

[24] = target: T1, human GPC3 recombinant protein; assay: SPR (Biacore), VHH-His over human GPC3 on CM5; fit 131.7 - 17.34 nM; Rmax 1.72 RU; Chi2 0.173
Experimental: as §1

[25] = target: T1, human GPC3 recombinant protein; assay: SPR (Biacore), summary table; Chi2 0.173; Profile 'L.D.'; asterisk: values not accurately calculated by Biacore software
Experimental: as §1

[26] = target: T1, human GPC3 recombinant protein; assay: SPR (Biacore), VHH-His over human GPC3 on CM5; fit 131.7 - 17.34 nM; Rmax 1.51 RU; Chi2 0.0556
Experimental: as §1

[27] = target: T1, human GPC3 recombinant protein; assay: SPR (Biacore), summary table; Chi2 0.0556; Profile 'L.D.'; asterisk: values not accurately calculated by Biacore software
Experimental: as §1

[28] = target: T1, human GPC3 recombinant protein; assay: SPR (Biacore), VHH-His over human GPC3 on CM5; fit 131.7 - 17.34 nM; Rmax 1.51 RU; Chi2 0.0556; asterisk: values not accurately calculated by Biacore software
Experimental: as §1

Sequence of human GPC3 on Jurkat E6.1 cells (human) (P51654 25-554 limits assumed): as above

HN3-Fc (Fc fusion) gave an FL1-A+ [1] of 74.9 and an FL1-A+ [2] of 47.1.

Irrelavant IgG C10 (antibody) gave an FL1-A+ [3] of 6.49.

B1: anti-GPC3 VHH-His tagged domain VHH14 (VHH)
VHH: QVQLVESGGGLVQPGGSLRLSCAASGFNFSNYWMHWVRQAPGKELVWVSRINSDGSSTSYADPVKGRFTISRDNANNMLYLQMNSLRAEDTAMYYCVRVALGFDFWGQGTLVTVSS
notes: Produced from a mammalian expression vector as a His fusion; not shown: His tag
Molecule B1 has a Kd [4] of 66.2 nM, a koff [5] of 0.00728 s⁻¹ and a Ka [6] of 1.51e+07 M⁻¹. The Kd [6] was 66.2 nM, the koff [6] was 0.0216 s⁻¹ and the kon [6] was 327000 M⁻¹ s⁻¹. It also gave a Mean FL4-A [7] of 729, a % of Binding [8] of 18.6% and a Mean FL2-A [9] of 2720. It also gave a % of Binding [10] of 0.38%.

B2: VH23 (VHH)
VHH: EVQLVESGGGLVQPGGSLRLSCAASGFTFSSYAMSWVRQAPGKESEWVSSISGGGSSTYYADSLKGRFTISRDNSKNTLYLQMNSLRAEDTAVYYCSKDPRFGEPPFDYWGQGTLVTVSS
notes: also called VHH23
B2 was tested, and the koff [11] was 0.00347 s⁻¹.

B3: anti-GPC3 VHH-His tagged domain VHH4 (VHH)
VHH: QVQLVESGGGLVQPGGSLRLSCAASGFTFSSYAMSWVRQAPGKESEWVSSISGSGSSTYYADSLKGRFTISRDNSKNTLYLQMNSLRAEDTAVYYCSKDPRFGEPPFDYWGQGTTVTVSS
notes: Produced from a mammalian expression vector as a His fusion; also called VH4; not shown: His tag
For B3, the koff [12] was 0.00236 s⁻¹, the Kd [13] was 5.07 nM and the Ka [14] was 1.97e+08 M⁻¹. The Kd [14] was 5.07 nM, the koff [14] was 0.00237 s⁻¹ and the kon [14] was 466000 M⁻¹ s⁻¹.

B4: anti-GPC3 VHH-His tagged domain VHH11 (VHH)
VHH: EVQLVESGGGLVQPGGSLRLSCAASGFTFSSYAMSWVRQAPGKEPEWVSSISGGGSSTYYADSLKGRFTISRDNSKNTLYLQMNSLRAEDTAVYYCSRDPRFREPPFDYWGQGTLVTVSS
notes: as for B1
B4 was tested, and the Mean FL2-A [15] was 22600, the FL1-A+ [16] was 0.78 and the koff [17] was 0.00325 s⁻¹. It also gave a Kd [18] of 2.19 nM, a % of Binding [19] of 66.2% and a Mean FL4-A [20] of 842. For the same molecule, the Ka [21] was 3.37e+08 M⁻¹, the Kd [21] was 2.97 nM and the koff [21] was 0.00261 s⁻¹. The kon [21] was 880000 M⁻¹ s⁻¹ and the % of Binding [22] was 0.57%.

B5: anti-GPC3 VHH-His tagged domain VHH18 (VHH)
VHH: QVQLVESGGGLVQPGGSLRLSCAASGFTFSSYAMSWVRQAPGKEPEWVSSISGGGSSTYYADSLKGRFTISRDNSKNTLYLQMNSLRAEDTAVYYCSRDPRLGEPPFDYWGQGTTVTVSS
notes: as for B1
For B5, the Ka [23] was about 2.05e+08 M⁻¹, the Kd [23] was about 4.88 nM and the koff [24] was 0.00249 s⁻¹. The kon [24] was 511000 M⁻¹ s⁻¹ and the Kd [25] was about 4.88 nM.

B6: anti-GPC3 VHH-His tagged domain VHH17 (VHH)
VHH: EVQLVESGGGLVQPGGSLRLSCAASGFTFSSYAMSWVRQAPGKGLEWVSAIYSGGSTYYADSVKGRFTISRDNSKNTLYLQMNSLRAEDTAVYYCARGDSSSSRFDYWGQGTLVTVSS
notes: as for B1
B6 was tested, and the koff [26] was 0.00119 s⁻¹, the kon [26] was 222000 M⁻¹ s⁻¹ and the Kd [27] was about 5.36 nM. It also gave a Ka [28] of about 1.86e+08 M⁻¹ and a Kd [28] of about 5.36 nM.
